Reference: patent US20260015399A1 (Boehringer Ingelheim, published 2026)
*1 amine or outer side, *2 acyl side, *3 side chain or, on linkers, in order; H or OH if unused. Side-chain parts run from the residue outwards. The star is where a group is joined. C18 diacid = O=C(O)CCCCCCCCCCCCCCCCC(=O)*; γGlu = O=C(O)[C@H](CCC(=O)[*:2])N[*:1]; Isovaleryl = CC(C)CC(=O)*; Ahx = NCCCCCC(=O)O

T1: human NPY2 receptor (human, UniProt P49146 1-381)
T1 construct: whole, on cells; also called hNPY2-R; hNPY2R
T1 sequence (looked up): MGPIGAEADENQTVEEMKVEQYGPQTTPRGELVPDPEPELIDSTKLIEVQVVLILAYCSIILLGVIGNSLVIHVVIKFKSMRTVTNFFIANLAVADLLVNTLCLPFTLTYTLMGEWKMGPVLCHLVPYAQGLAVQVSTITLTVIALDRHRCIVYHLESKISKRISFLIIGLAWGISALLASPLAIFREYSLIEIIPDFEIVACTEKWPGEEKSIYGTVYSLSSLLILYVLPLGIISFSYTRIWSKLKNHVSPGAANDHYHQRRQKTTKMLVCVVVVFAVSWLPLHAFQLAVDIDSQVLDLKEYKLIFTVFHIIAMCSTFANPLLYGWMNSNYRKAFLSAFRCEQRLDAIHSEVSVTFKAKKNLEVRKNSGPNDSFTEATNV

B1: Compound 30 (peptide)
peptide: Isovaleryl-APEK([Ahx-γGlu-C18 diacid])PPADATPEELQRYYVSLRHYYNWLTRQRY-NH2
SMILES: CC(C)CC(=O)N[C@@H](C)C(=O)N1CCC[C@H]1C(=O)N[C@@H](CCC(=O)O)C(=O)N[C@@H](CCCCNC(=O)CCCCCNC(=O)CC[C@H](NC(=O)CCCCCCCCCCCCCCCCC(=O)O)C(=O)O)C(=O)N1CCC[C@H]1C(=O)N1CCC[C@H]1C(=O)N[C@@H](C)C(=O)N[C@@H](CC(=O)O)C(=O)N[C@@H](C)C(=O)N[C@H](C(=O)N1CCC[C@H]1C(=O)N[C@@H](CCC(=O)O)C(=O)N[C@@H](CCC(=O)O)C(=O)N[C@@H](CC(C)C)C(=O)N[C@@H](CCC(N)=O)C(=O)N[C@@H](CCCNC(=N)N)C(=O)N[C@@H](Cc1ccc(O)cc1)C(=O)N[C@@H](Cc1ccc(O)cc1)C(=O)N[C@H](C(=O)N[C@@H](CO)C(=O)N[C@@H](CC(C)C)C(=O)N[C@@H](CCCNC(=N)N)C(=O)N[C@@H](Cc1c[nH]cn1)C(=O)N[C@@H](Cc1ccc(O)cc1)C(=O)N[C@@H](Cc1ccc(O)cc1)C(=O)N[C@@H](CC(N)=O)C(=O)N[C@@H](Cc1c[nH]c2ccccc12)C(=O)N[C@@H](CC(C)C)C(=O)N[C@H](C(=O)N[C@@H](CCCNC(=N)N)C(=O)N[C@@H](CCC(N)=O)C(=O)N[C@@H](CCCNC(=N)N)C(=O)N[C@@H](Cc1ccc(O)cc1)C(N)=O)[C@@H](C)O)C(C)C)[C@@H](C)O
B2: Compound 33 (peptide)
peptide: Isovaleryl-APAK([Ahx-γGlu-C18 diacid])PEEDAEPEELQRYYISLRHYYNWLTRQRY-NH2
SMILES: CC[C@H](C)[C@H](NC(=O)[C@H](Cc1ccc(O)cc1)NC(=O)[C@H](Cc1ccc(O)cc1)NC(=O)[C@H](CCCNC(=N)N)NC(=O)[C@H](CCC(N)=O)NC(=O)[C@H](CC(C)C)NC(=O)[C@H](CCC(=O)O)NC(=O)[C@H](CCC(=O)O)NC(=O)[C@@H]1CCCN1C(=O)[C@H](CCC(=O)O)NC(=O)[C@H](C)NC(=O)[C@H](CC(=O)O)NC(=O)[C@H](CCC(=O)O)NC(=O)[C@H](CCC(=O)O)NC(=O)[C@@H]1CCCN1C(=O)[C@H](CCCCNC(=O)CCCCCNC(=O)CC[C@H](NC(=O)CCCCCCCCCCCCCCCCC(=O)O)C(=O)O)NC(=O)[C@H](C)NC(=O)[C@@H]1CCCN1C(=O)[C@H](C)NC(=O)CC(C)C)C(=O)N[C@@H](CO)C(=O)N[C@@H](CC(C)C)C(=O)N[C@@H](CCCNC(=N)N)C(=O)N[C@@H](Cc1c[nH]cn1)C(=O)N[C@@H](Cc1ccc(O)cc1)C(=O)N[C@@H](Cc1ccc(O)cc1)C(=O)N[C@@H](CC(N)=O)C(=O)N[C@@H](Cc1c[nH]c2ccccc12)C(=O)N[C@@H](CC(C)C)C(=O)N[C@H](C(=O)N[C@@H](CCCNC(=N)N)C(=O)N[C@@H](CCC(N)=O)C(=O)N[C@@H](CCCNC(=N)N)C(=O)N[C@@H](Cc1ccc(O)cc1)C(N)=O)[C@@H](C)O
B3: Compound 31 (peptide)
peptide: Isovaleryl-APEK([Ahx-γGlu-C18 diacid])PEEDATPEELQPYYVSLRHYYNWLTRQRY-NH2
SMILES: CC(C)CC(=O)N[C@@H](C)C(=O)N1CCC[C@H]1C(=O)N[C@@H](CCC(=O)O)C(=O)N[C@@H](CCCCNC(=O)CCCCCNC(=O)CC[C@H](NC(=O)CCCCCCCCCCCCCCCCC(=O)O)C(=O)O)C(=O)N1CCC[C@H]1C(=O)N[C@@H](CCC(=O)O)C(=O)N[C@@H](CCC(=O)O)C(=O)N[C@@H](CC(=O)O)C(=O)N[C@@H](C)C(=O)N[C@H](C(=O)N1CCC[C@H]1C(=O)N[C@@H](CCC(=O)O)C(=O)N[C@@H](CCC(=O)O)C(=O)N[C@@H](CC(C)C)C(=O)N[C@@H](CCC(N)=O)C(=O)N1CCC[C@H]1C(=O)N[C@@H](Cc1ccc(O)cc1)C(=O)N[C@@H](Cc1ccc(O)cc1)C(=O)N[C@H](C(=O)N[C@@H](CO)C(=O)N[C@@H](CC(C)C)C(=O)N[C@@H](CCCNC(=N)N)C(=O)N[C@@H](Cc1c[nH]cn1)C(=O)N[C@@H](Cc1ccc(O)cc1)C(=O)N[C@@H](Cc1ccc(O)cc1)C(=O)N[C@@H](CC(N)=O)C(=O)N[C@@H](Cc1c[nH]c2ccccc12)C(=O)N[C@@H](CC(C)C)C(=O)N[C@H](C(=O)N[C@@H](CCCNC(=N)N)C(=O)N[C@@H](CCC(N)=O)C(=O)N[C@@H](CCCNC(=N)N)C(=O)N[C@@H](Cc1ccc(O)cc1)C(N)=O)[C@@H](C)O)C(C)C)[C@@H](C)O
B4: Compound 35 (peptide)
peptide: Isovaleryl-APAK([Ahx-γGlu-C18 diacid])PEEAATPEELQRYYVSLRHYYNWLTRQRY-NH2
SMILES: CC(C)CC(=O)N[C@@H](C)C(=O)N1CCC[C@H]1C(=O)N[C@@H](C)C(=O)N[C@@H](CCCCNC(=O)CCCCCNC(=O)CC[C@H](NC(=O)CCCCCCCCCCCCCCCCC(=O)O)C(=O)O)C(=O)N1CCC[C@H]1C(=O)N[C@@H](CCC(=O)O)C(=O)N[C@@H](CCC(=O)O)C(=O)N[C@@H](C)C(=O)N[C@@H](C)C(=O)N[C@H](C(=O)N1CCC[C@H]1C(=O)N[C@@H](CCC(=O)O)C(=O)N[C@@H](CCC(=O)O)C(=O)N[C@@H](CC(C)C)C(=O)N[C@@H](CCC(N)=O)C(=O)N[C@@H](CCCNC(=N)N)C(=O)N[C@@H](Cc1ccc(O)cc1)C(=O)N[C@@H](Cc1ccc(O)cc1)C(=O)N[C@H](C(=O)N[C@@H](CO)C(=O)N[C@@H](CC(C)C)C(=O)N[C@@H](CCCNC(=N)N)C(=O)N[C@@H](Cc1c[nH]cn1)C(=O)N[C@@H](Cc1ccc(O)cc1)C(=O)N[C@@H](Cc1ccc(O)cc1)C(=O)N[C@@H](CC(N)=O)C(=O)N[C@@H](Cc1c[nH]c2ccccc12)C(=O)N[C@@H](CC(C)C)C(=O)N[C@H](C(=O)N[C@@H](CCCNC(=N)N)C(=O)N[C@@H](CCC(N)=O)C(=O)N[C@@H](CCCNC(=N)N)C(=O)N[C@@H](Cc1ccc(O)cc1)C(N)=O)[C@@H](C)O)C(C)C)[C@@H](C)O
B5: Compound 34 (peptide)
peptide: Isovaleryl-APEK([Ahx-γGlu-C18 diacid])PEEDASAEELQQYYVSLRHYYNWLTRQRY-NH2
SMILES: CC(C)CC(=O)N[C@@H](C)C(=O)N1CCC[C@H]1C(=O)N[C@@H](CCC(=O)O)C(=O)N[C@@H](CCCCNC(=O)CCCCCNC(=O)CC[C@H](NC(=O)CCCCCCCCCCCCCCCCC(=O)O)C(=O)O)C(=O)N1CCC[C@H]1C(=O)N[C@@H](CCC(=O)O)C(=O)N[C@@H](CCC(=O)O)C(=O)N[C@@H](CC(=O)O)C(=O)N[C@@H](C)C(=O)N[C@@H](CO)C(=O)N[C@@H](C)C(=O)N[C@@H](CCC(=O)O)C(=O)N[C@@H](CCC(=O)O)C(=O)N[C@@H](CC(C)C)C(=O)N[C@@H](CCC(N)=O)C(=O)N[C@@H](CCC(N)=O)C(=O)N[C@@H](Cc1ccc(O)cc1)C(=O)N[C@@H](Cc1ccc(O)cc1)C(=O)N[C@H](C(=O)N[C@@H](CO)C(=O)N[C@@H](CC(C)C)C(=O)N[C@@H](CCCNC(=N)N)C(=O)N[C@@H](Cc1c[nH]cn1)C(=O)N[C@@H](Cc1ccc(O)cc1)C(=O)N[C@@H](Cc1ccc(O)cc1)C(=O)N[C@@H](CC(N)=O)C(=O)N[C@@H](Cc1c[nH]c2ccccc12)C(=O)N[C@@H](CC(C)C)C(=O)N[C@H](C(=O)N[C@@H](CCCNC(=N)N)C(=O)N[C@@H](CCC(N)=O)C(=O)N[C@@H](CCCNC(=N)N)C(=O)N[C@@H](Cc1ccc(O)cc1)C(N)=O)[C@@H](C)O)C(C)C
B6: Compound 32 (peptide)
peptide: Isovaleryl-APAK([Ahx-γGlu-C18 diacid])PEEDASPEELQRYYVSLRHQYNWLTRQRY-NH2
SMILES: CC(C)CC(=O)N[C@@H](C)C(=O)N1CCC[C@H]1C(=O)N[C@@H](C)C(=O)N[C@@H](CCCCNC(=O)CCCCCNC(=O)CC[C@H](NC(=O)CCCCCCCCCCCCCCCCC(=O)O)C(=O)O)C(=O)N1CCC[C@H]1C(=O)N[C@@H](CCC(=O)O)C(=O)N[C@@H](CCC(=O)O)C(=O)N[C@@H](CC(=O)O)C(=O)N[C@@H](C)C(=O)N[C@@H](CO)C(=O)N1CCC[C@H]1C(=O)N[C@@H](CCC(=O)O)C(=O)N[C@@H](CCC(=O)O)C(=O)N[C@@H](CC(C)C)C(=O)N[C@@H](CCC(N)=O)C(=O)N[C@@H](CCCNC(=N)N)C(=O)N[C@@H](Cc1ccc(O)cc1)C(=O)N[C@@H](Cc1ccc(O)cc1)C(=O)N[C@H](C(=O)N[C@@H](CO)C(=O)N[C@@H](CC(C)C)C(=O)N[C@@H](CCCNC(=N)N)C(=O)N[C@@H](Cc1c[nH]cn1)C(=O)N[C@@H](CCC(N)=O)C(=O)N[C@@H](Cc1ccc(O)cc1)C(=O)N[C@@H](CC(N)=O)C(=O)N[C@@H](Cc1c[nH]c2ccccc12)C(=O)N[C@@H](CC(C)C)C(=O)N[C@H](C(=O)N[C@@H](CCCNC(=N)N)C(=O)N[C@@H](CCC(N)=O)C(=O)N[C@@H](CCCNC(=N)N)C(=O)N[C@@H](Cc1ccc(O)cc1)C(N)=O)[C@@H](C)O)C(C)C

target: T1, human NPY2 receptor; experiment: RLB: displacement of 125I-PYY(1-36) from hNPY2R membranes

Row | Binder | Ki [nM]
1 | B1 | 0.3
2 | B2 | 2.53
3 | B3 | 34.7
4 | B4 | 1.4
5 | B5 | 3.53
6 | B6 | 13.6
